Test results taken from patent publication US20190016800A1 (NANJING LEADS BIOLABS, published 2019).

B1: anti-LAG-3 antibody 2# (antibody, V domains shown)
VH: QVQLQESGGGVVRPGGSLRLSCAASGFTFDDYGMSWVRQAPGKGLEWVSGINWSGGSTYYADSVKGRSTISRDNSKNTLYLQMNSLRAEDTAVYYCATGGYWGQGTLVTVSS
VL: not shown
notes: elsewhere IgG4 is preferred; also called Clone 2#; clone #2
B2: anti-LAG-3 antibody 8# (antibody, human IgG4 S228P, lambda, V domains shown)
VH: B1 VH
VL: SYELTQPPSVSVSPGQTASITCSGDKLGDKYTSWYQQKPGQSPLLVIYQSTKRPSGIPERFSGSNSGDTATLTISGTQPMDEADYYCQAWDSSTAVFGGGTKLTVLG
notes: also called Clone 8#; Clone 8
B3: anti-LAG-3 antibody 13# (antibody, human IgG4 S228P, lambda, V domains shown)
VH: B1 VH
VL: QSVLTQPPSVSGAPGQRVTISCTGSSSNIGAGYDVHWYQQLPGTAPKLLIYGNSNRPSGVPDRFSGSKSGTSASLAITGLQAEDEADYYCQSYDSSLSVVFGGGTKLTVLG
notes: The VH is the same as that of clone 8; also called Clone 13#; Clone 13
B4: clone 6# as single chain Fv displayed on phage (scFv)
scFv: QVQLVQSGGGVVQPGRSLRLPCAASGFTFSSYGMHWVRQAPGKGLEWVAAISYDGSNKYYADSVKGRFTISRDNSKNTLYLQMNSLRAEDTAVYYCAREGSYYLEGIDYWGQGTLVTVSSSGGSTITSYNVYYTKLSSSGTQSVLTQPPSVSEAPRQRVTISCSGSSSNIGDNAVNWYQQLPGKAPTLLIYYDDLLPSGVPDRFSGSKSGTSASLAISGLQSEDEAEYYCAAWDDSLKGYVFGTGTKLTVLG
B5: clone 8# as single chain Fv displayed on phage (scFv)
scFv: QVQLQESGGGVVRPGGSLRLSCAASGFTFDDYGMSWVRQAPGKGLEWVSGINWSGGSTYYADSVKGRSTISRDNSKNTLYLQMNSLRAEDTAVYYCATGGYWGQGTLVTVSSSGGSTITSYNVYYTKLSSSGTSYELTQPPSVSVSPGQTASITCSGDKLGDKYTSWYQQKPGQSPLLVIYQSTKRPSGIPERFSGSNSGDTATLTISGTQPMDEADYYCQAWDSSTAVFGGGTKLTVLG
B6: anti-LAG-3 antibody 6# (antibody, human IgG4 S228P, lambda, V domains shown)
VH: QVQLVQSGGGVVQPGRSLRLPCAASGFTFSSYGMHWVRQAPGKGLEWVAAISYDGSNKYYADSVKGRFTISRDNSKNTLYLQMNSLRAEDTAVYYCAREGSYYLEGIDYWGQGTLVTVSS
VL: QSVLTQPPSVSEAPRQRVTISCSGSSSNIGDNAVNWYQQLPGKAPTLLIYYDDLLPSGVPDRFSGSKSGTSASLAISGLQSEDEAEYYCAAWDDSLKGYVFGTGTKLTVLG
notes: also called Clone 6#; Clone 6

Tests used:
[1] = biological target: T1, human CD4 recombinant protein (Sino Biological) (human, UniProt P01730 26-390, limits assumed); assay: ELISA, human CD4 recombinant protein immobilized
T1 construct: Bought protein

[2] = biological target: T2, Mouse LAG-3 (Acrobiosystems) (mouse, UniProt Q61790 24-442, limits assumed); assay: ELISA, mouse LAG-3 recombinant protein immobilized
T2 construct: Bought protein; also called mouse LAG-3 recombinant protein
T2 sequence (looked up): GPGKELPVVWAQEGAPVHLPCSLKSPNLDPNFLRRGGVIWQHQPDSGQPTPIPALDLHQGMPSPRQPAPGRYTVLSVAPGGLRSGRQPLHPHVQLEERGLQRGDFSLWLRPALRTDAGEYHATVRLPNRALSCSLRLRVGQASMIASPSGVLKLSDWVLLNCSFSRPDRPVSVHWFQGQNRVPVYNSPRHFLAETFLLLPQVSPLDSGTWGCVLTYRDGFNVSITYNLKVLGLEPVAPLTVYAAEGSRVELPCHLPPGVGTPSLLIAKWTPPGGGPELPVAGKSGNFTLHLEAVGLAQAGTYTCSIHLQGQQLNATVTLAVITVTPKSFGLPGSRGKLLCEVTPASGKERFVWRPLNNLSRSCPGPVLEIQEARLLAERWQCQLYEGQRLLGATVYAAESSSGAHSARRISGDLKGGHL

[3] = biological target: T3, recombinant rhesus monkey LAG-3 protein (Amino acids 1-450 of XM_001108923.3 fused to human IgG1 Fc domain) (rhesus monkey; human, UniProt P18627 23-450); assay: BLI ForteBio Octet RED 96, biotin labeled antibody on streptavidin sensor, antigen 3.125-100 nM, 1:1 fit
T3 construct: not shown: human IgG1 Fc domain
T3 chain: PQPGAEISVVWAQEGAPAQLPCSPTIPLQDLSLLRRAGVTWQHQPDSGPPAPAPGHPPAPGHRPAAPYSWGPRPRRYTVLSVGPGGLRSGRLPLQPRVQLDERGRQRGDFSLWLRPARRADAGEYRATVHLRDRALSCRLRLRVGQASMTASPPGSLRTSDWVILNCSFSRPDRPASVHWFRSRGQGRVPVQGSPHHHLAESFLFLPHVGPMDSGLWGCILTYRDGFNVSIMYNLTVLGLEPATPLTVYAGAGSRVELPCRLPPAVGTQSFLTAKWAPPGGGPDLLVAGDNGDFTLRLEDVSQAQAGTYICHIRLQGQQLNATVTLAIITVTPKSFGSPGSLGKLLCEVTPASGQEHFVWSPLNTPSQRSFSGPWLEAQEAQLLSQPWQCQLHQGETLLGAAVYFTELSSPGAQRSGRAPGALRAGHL

[4] = biological target: T4, Human LAG-3 protein (Cat#LA3-5222, Acrobiosystems) (human, UniProt P18627 23-450); assay: as above
T4 construct: Bought protein; also called recombinant human LAG-3; LAG3 recombinant protein
T4 sequence: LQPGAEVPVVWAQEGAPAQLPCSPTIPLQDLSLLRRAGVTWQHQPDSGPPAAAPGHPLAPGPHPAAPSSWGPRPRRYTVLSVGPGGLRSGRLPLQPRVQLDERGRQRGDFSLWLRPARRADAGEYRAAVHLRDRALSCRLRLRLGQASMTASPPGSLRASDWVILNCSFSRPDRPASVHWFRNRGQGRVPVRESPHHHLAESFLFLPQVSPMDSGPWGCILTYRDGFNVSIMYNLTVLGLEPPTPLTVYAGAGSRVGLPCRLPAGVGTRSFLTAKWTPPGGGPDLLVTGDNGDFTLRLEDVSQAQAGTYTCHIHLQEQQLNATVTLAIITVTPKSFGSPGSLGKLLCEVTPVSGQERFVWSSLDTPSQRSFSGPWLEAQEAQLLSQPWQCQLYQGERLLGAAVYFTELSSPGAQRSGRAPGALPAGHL

[5] = biological target: cynomolgus monkey LAG-3 protein (Cat#LA3-C52A0, Acrobiosystems) (cynomolgus monkey); assay: as above
[6] = biological target: T4, Human LAG-3 protein (Cat#LA3-5222, …); assay: SPR Biacore T200, antibody captured on anti-human IgG (Fc), human LAG-3 injected 6.25-200 nM, 1:1 Langmuir fit
[7] = biological target: T4, Human LAG-3 protein (Cat#LA3-5222, …); assay: ELISA, human LAG-3 recombinant protein immobilized, serially diluted antibody, anti-human IgG-HRP, OD450-620
[8] = biological target: T5, Recombinant LAG-3 domain 1-2 (Amino acid 1-262) fused to human IgG1 Fc domain (human, UniProt P18627 23-262); assay: ELISA, human LAG-3 domain 1-2 Fc fusion immobilized, serially diluted antibody, anti-human F(ab')2-HRP, OD450-620
T5 construct: also called domain 1-2 of human LAG-3; not shown: human IgG1 Fc domain
T5 sequence: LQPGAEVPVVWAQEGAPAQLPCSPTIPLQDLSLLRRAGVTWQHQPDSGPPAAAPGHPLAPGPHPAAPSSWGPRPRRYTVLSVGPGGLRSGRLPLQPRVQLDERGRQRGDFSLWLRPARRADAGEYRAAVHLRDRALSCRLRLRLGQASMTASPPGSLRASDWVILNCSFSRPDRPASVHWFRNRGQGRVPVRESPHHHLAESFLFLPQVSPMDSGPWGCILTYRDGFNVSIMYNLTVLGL

[9] = biological target: T4, Human LAG-3 protein (Cat#LA3-5222, …); assay: ELISA blocking assay: human LAG-3 immobilized, antibody mixed with biotin labeled LSECtin, streptavidin-HRP, OD450-620
[10] = biological target: T6, LAG-3 fusion protein comprising human LAG-3 extracellular domain fused to mouse Fc (SinoBiological, … (human; mouse, UniProt P18627 23-450); assay: flow cytometry blocking assay: antibody premixed with hLAG-3-mFc, binding of hLAG-3-mFc to MHC class II on Daudi cells read as MFI
T6 construct: Bought fusion protein; not shown: mouse Fc
T6 sequence: T4 sequence

[11] = biological target: T4, Human LAG-3 protein (Cat#LA3-5222, …); assay: phage ELISA on coated LAG3

| Binder | binding result [1] | binding result [2] | Kd [3] | koff [3] | kon [3] | Kd [4] | koff [4] | kon [4] | Kd [5] | koff [5] | kon [5] | Kd [6] | koff [6] | kon [6] | EC50 [7] | EC50 [8] | IC50 [9] | IC50 [10] | binding result [11] |
| --- | --- | --- | --- | --- | --- | --- | --- | --- | --- | --- | --- | --- | --- | --- | --- | --- | --- | --- | --- |
| B1 | no binding (tested: about 20 nM) | no binding (tested: about 10 nM) | 1.22 nM | 0.000676 s⁻¹ | 554000 M⁻¹ s⁻¹ | 0.13 nM | 3.65e-05 s⁻¹ | 280000 M⁻¹ s⁻¹ | 1.27 nM | 0.00058 s⁻¹ | 457000 M⁻¹ s⁻¹ | 0.348 nM | 0.00062 s⁻¹ | 1.78e+06 M⁻¹ s⁻¹ | 0.105 nM | 0.228 nM | 6.48 nM | 11.5 nM | – |
| B2 | no binding (tested: about 20 nM) | no binding (tested: about 10 nM) | – | – | – | – | – | – | – | – | – | 2.08 nM | 0.000298 s⁻¹ | 143000 M⁻¹ s⁻¹ | 0.637 nM | 1.99 nM | – | 31.5 nM | – |
| B3 | no binding (tested: about 20 nM) | no binding (tested: about 10 nM) | – | – | – | – | – | – | – | – | – | 486 nM | 0.0448 s⁻¹ | 92200 M⁻¹ s⁻¹ | 0.509 nM | 1.46 nM | – | – | – |
| B4 | – | – | – | – | – | – | – | – | – | – | – | – | – | – | – | – | – | – | binds |
| B5 | – | – | – | – | – | – | – | – | – | – | – | – | – | – | – | – | – | – | binds |
| B6 | no binding (tested: about 20 nM) | no binding (tested: about 10 nM) | – | – | – | – | – | – | – | – | – | 38.4 nM | 0.000943 s⁻¹ | 24600 M⁻¹ s⁻¹ | – | – | – | – | – |
